Experiment [1] has as its target T1, human PD-1 (ACRO, His tag) (human, UniProt Q15116 25-167).
T1 construct: not shown: His tag
Briefly: dual (bridging) ELISA: human PD-1 (His tag) coated, antibody, then biotinylated human VEGF, streptavidin-HRP. How it is done: (§1) The order of the binding to VEGF and PD-1 was changed for dual ELISA detection. A 96-well ELISA plate was coated with 1 μg/mL human PD-1 (ACRO, His tag) overnight, washed and blocked for 1 hour. […] TMB solution was added for color development, and the OD450 nm absorbance value was read on a microplate reader.

Experiment [2] concerns the target T1, human PD-1 (ACRO, His tag). Briefly: dual (bridging) ELISA: human PD-1 (His tag) coated, antibody, then biotinylated human VEGF; 'A single targeting antibody failed to bind to two targets simultaneously'. The procedure: as §1
In general terms: In an ELISA, binding on a coated surface is turned into a signal by an enzyme label.

Experiment [3] addresses T2, biotin-labeled human VEGF (ACRO, biotinylated protein) (human, UniProt P15692-4 27-191, limits assumed, biotinylated (site not stated)). Briefly: competition ELISA: human VEGFR2 (Fc tag) coated, antibody mixed with biotinylated human VEGF, streptavidin-HRP. How it is done: (§2) ELISA plates were respectively coated with 2 μg/mL human VEGFR1 and 5 μg/mL human VEGFR2 (in-house constructed and expressed, Fc tag) overnight, washed and blocked. […] Then the plates were added with HRP-labeled streptavidin and incubated for 1 hour. After TMB solution was added for color development, the OD450 nm absorbance value was read on a microplate reader.

Experiment [4] deals with T3, human PD-1 (ACRO, Fc tag) (human, UniProt Q15116 25-167).
T3 construct: not shown: Fc tag
T3 sequence (Q15116 25-167 limits assumed): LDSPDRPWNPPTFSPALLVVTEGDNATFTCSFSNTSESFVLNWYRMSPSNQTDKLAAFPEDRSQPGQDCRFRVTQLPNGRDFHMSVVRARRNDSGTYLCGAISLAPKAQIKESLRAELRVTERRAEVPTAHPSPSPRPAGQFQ
Briefly: competition ELISA: human PD-1 (Fc tag) coated, antibody mixed with human PD-L1 (His tag); text: 'except for #48, which only bound to VEGF'. The procedure:
(§3) An ELISA plate was coated with 1 ug/mL of human PD-1 (ACRO, Fc tag) overnight, washed and blocked. […] Then the plate was added with HRP-labeled anti-His antibody, and incubated for 1 hour. After TMB solution was added for color development, the OD450 absorbance value was read on a microplate reader (see Table 16).

Experiment [5] concerns the target T4, human VEGF (ACRO, His tag) (human, UniProt P15692-4 27-191, limits assumed).
T4 construct: not shown: His tag
Briefly: ELISA, human VEGF (His tag) coated, anti-human IgG Fc-HRP. The procedure: (§4) The binding of the antibody to human PD-1 was detected by ELISA. 1 μg/mL human PD-1 (ACRO, His tag) was coated on an ELISA plate overnight and blocked. Subsequently, the plate was added with gradient dilutions of the bispecific antibody and the control antibody, incubated and washed. Then, the plate was added with HRP-labeled anti-human IgG Fc secondary antibody, incubated and washed. After TMB solution was added for color development, the OD450 absorbance value was read on a microplate reader (see Table 12). […] Subsequently, the plate was added with gradient dilutions of the sample to be tested and the control antibody, incubated and washed. Then, the plated was added with HRP-labeled anti-human IgG Fc secondary antibody, incubated and washed. After TMB solution was added for color development, the OD450 absorbance value was read on a microplate reader (see Table 13). […] (The control substances were all obtained by in-house expression and purification)

For another experiment, the target named is T5, mouse VEGF-A (mouse, UniProt Q00731-2 27-190, limits assumed).
T5 sequence (looked up): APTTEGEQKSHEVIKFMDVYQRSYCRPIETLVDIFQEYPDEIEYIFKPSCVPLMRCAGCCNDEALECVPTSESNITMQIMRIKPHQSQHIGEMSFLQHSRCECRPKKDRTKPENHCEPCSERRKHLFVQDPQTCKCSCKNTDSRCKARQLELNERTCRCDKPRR
Kind of experiment: ELISA, VHH-Fc expression supernatant on mouse VEGF-A.

For a further experiment, the target named is human VEGF-A (human, UniProt P15692-4 27-191, limits assumed). Briefly: ELISA, VHH-Fc expression supernatant on human VEGF-A.
For experiment [6], the target named is monkey PD-1 (ACRO, His tag) (monkey, UniProt B0LAJ3 25-170). Kind of experiment: ELISA, monkey PD-1 (His tag) coated, anti-human IgG Fc-HRP. How it is done:
The binding of candidate molecules and competitor to antigens of different species was detected by ELISA. […] The binding of antibodies to monkey PD-1 was detected by ELISA. An ELISA plate was coated with 1 μg/mL monkey PD-1 (ACRO, His tag) overnight and blocked. Subsequently, the plate was added with gradient dilutions of the sample to be tested and the control antibody, incubated and washed. Then, the plate was added with HRP-labeled anti-human IgG Fc secondary antibody, incubated and washed. After TMB solution was added for color development, the OD450 absorbance value was read on a microplate reader (see Table 15).

Experiment [7] concerns the target T1, human PD-1 (ACRO, His tag). Kind of experiment: ELISA, human PD-1 (His tag) coated, anti-human IgG Fc-HRP. The procedure: as §4
Experiment [8] has as its target T3, human PD-1 (ACRO, Fc tag). Kind of experiment: competition ELISA: human PD-1 (Fc tag) coated, antibody mixed with human PD-L1 (His tag), anti-His-HRP. The procedure:
as §3

The target of a further experiment is VEGF. Briefly: cell-based or functional assay.
Experiment [9] concerns the target human VEGF (Sino Biological, no label) (human, UniProt P15692-4 27-191, limits assumed). Kind of experiment: dual (bridging) ELISA: human VEGF (no label) coated, antibody, then human PD-1 (His tag), anti-His-HRP. The procedure:
Biological, no label) overnight, washed and blocked for 1 hour. Subsequently, the plate was added with gradient dilutions of the test antibody, incubated for 2 hours, then added with 1 μg/mL of human PD-1 (ACRO, His tag), incubated for 2 hours, washed, and incubated with HRP-labeled anti-His antibody for 1 hour. After TMB solution was added for color development, the OD450 nm absorbance value was read on a microplate reader.

The target of experiment [10] is T2, biotin-labeled human VEGF (ACRO, …). Kind of experiment: competition ELISA: human VEGFR1 (Fc tag) coated, antibody mixed with biotinylated human VEGF, streptavidin-HRP. The procedure: as §2

T1 sequence (Q15116 25-167 limits assumed): as the sequence (Q15116 25-167 limits assumed) above
monkey PD-1 (ACRO, His tag), sequence (B0LAJ3 entry or part of it limits assumed, form in doubt): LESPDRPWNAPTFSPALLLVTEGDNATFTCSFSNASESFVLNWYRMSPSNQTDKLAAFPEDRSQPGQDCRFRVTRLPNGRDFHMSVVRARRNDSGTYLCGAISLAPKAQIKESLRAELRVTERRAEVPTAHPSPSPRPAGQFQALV

B1: Strain #48 VHH (VHH, not shown: a dimerising Fc or GST)
VHH: EVQLLESGGGLVQPGGSLRLSCAASGFTFSTSTMSWYRQAPGKERELVSFITSAGATTYYADSVKGRFTMSRDNSKNTVYLQMNSLRAEDTAVYYCRALVTLWNVYWGQGTLVTVSS
notes: Humanized, stabilized variant of #6 (11 Kabat-numbered mutations)
For the molecule B1, the “TOP OD” value in [1] is 0.061 OD450; in experiment [5], 3.09 OD450. Moreover, the binding result in [2] and in experiment [4] was “no binding” throughout. Besides, the IC50 in [3] worked out at 5.84 nM. Further, it took 0.608 nM to reach a half-maximal effect in experiment [5] (EC50).

B2: Strain #6 VHH (Fc fusion)
chain: QVQLQESGGGLVQPGGSLRLSCAASGFTFSTSTMSWYRQAPGKERELVAFITSAGATTNYADSVKDRFTMSRDNDKNTVYLQMNVLKPEDTAMYYCRALVTLWNVYWGQGTQVTVSS
notes: also called strain 6 (#6); not shown: Fc of the VHH-Fc construct
Take B2: the EC50 turned out to be 6.46 ng/mL with mouse VEGF-A and 9.33 ng/mL in the experiment with human VEGF-A.

B3: Bevacizumab (antibody, V domains shown)
VH: EVQLVESGGGLVQPGGSLRLSCAASGYTFTNYGMNWVRQAPGKGLEWVGWINTYTGEPTYAADFKRRFTFSLDTSKSTAYLQMNSLRAEDTAVYYCAKYPHYYGSSHWYFDVWGQGTLVTVSS
VL: DIQMTQSPSSLSASVGDRVTITCSASQDISNYLNWYQQKPGKAPKVLIYFTSSLHSGVPSRFSGSGSGTDFTLTISSLQPEDFATYYCQQYSTVPWTFGQGTKVEIK
As to B3, the results for the “TOP OD” value in experiment [1], in experiment [6] and in experiment [7] were 0.067 OD450, 0.127 OD450 and 0.151 OD450, respectively.

B4: #16 bispecific antibody (bispecific antibody, human IgG1, kappa)
heavy: QVQLVQSGVEVKKPGASVKVSCKASGYTFTNYYMYWVRQAPGQGLEWMGGINPSNGGTNFNEKFKNRVTLTTDSSTTTAYMELKSLQFDDTAVYYCARRDYRFDMGFDYWGQGTTVTVSSASTKGPSVFPLAPSSKSTSGGTAALGCLVKDYFPEPVTVSWNSGALTSGVHTFPAVLQSSGLYSLSSVVTVPSSSLGTQTYICNVNHKPSNTKVDKKVEPKSCDKTHTCPPCPAPEAEGAPSVFLFPPKPKDTLMISRTPEVTCVVVDVSHEDPEVKFNWYVDGVEVHNAKTKPREEQYNSTYRVVSVLTVLHQDWLNGKEYKCKVSNKALPSSIEKTISKAKGQPREPQVYTLPPSREEMTKNQVSLTCLVKGFYPSDIAVEWESNGQPENNYKTTPPVLDSDGSFFLYSKLTVDKSRWQQGNVFSCSVMHEALHNHYTQKSLSLSPGEVQLLESGGGLVQPGGSLRLSCAASGFTFSTSTMSWYRQAPGKERELVSFITSAGATTYYADSVKGRFTMSRDNSKNTVYLQMNSLRAEDTAVYYCRALVTLWNVYWGQGTLVTVSS
light: EIVLTQSPATLSLSPGERATLSCRASKGVSTSGYSYLHWYQQKPGQAPRLLIYLASYLESGVPARFSGSGSGTDFTLTISSLEPEDFAVYYCQHSRDLPLTFGGGTKVEIKRTVAAPSVFIFPPSDEQLKSGTASVVCLLNNFYPREAKVQWKVDNALQSGNSQESVTEQDSKDSTYSLSSTLTLSKADYEKHKVYACEVTHQGLSSPVTKSFNRGEC
notes: Pembrolizumab-based anti-PD-1 IgG with #48 VHH at the C-terminus of the heavy chain; 2+2 valency; functionally silent IgG1 Fc (AEASS)
On to B4, for which the EC50 in experiment [1] was found to be 0.117 nM; in [6], 0.171 nM; in [9], 0.326 nM; in experiment [7], 0.114 nM; in [5], 0.579 nM. Further, the “TOP OD” value in [1] turned out to be 3.65 OD450; in [6], 3.38 OD450; in experiment [7], 2.58 OD450; in experiment [5], 1.75 OD450. For the same molecule, the values for the IC50 in experiment [8], in experiment [3] and in experiment [10] were 2.53 nM, 3.25 nM and 0.507 nM, respectively. Besides, the “maximum inhibition rate (HUVEC proliferation)” value with VEGF is ~60%.

As a reminder, the IC50 is the concentration that inhibits the measured activity by half. In general, EC50 refers to the concentration at which the effect is half-maximal.

For the origin of these results see patent publication US20260055173A1 (published 2026).
